Blank lines part the entries; values can stand above or below the binder they belong to.
Key:
Test in all cases: pull-down; in-vitro binding assay: GST fusion protein (1 μM) on glutathione agarose mixed with His-RIT1 (0.5 μM or a concentration series) loaded with GDP or GTPγS; 20 mM Tris-HCl, 100 mM NaCl, 0.1% Triton X-100, 1 mM DTT, 100 mM MgCl2; 30 min at room temperature; anti-His immunoblot
Conditions in all cases: both partners purified
[1] = target: T1, His-RIT1^WT (amino acids 1-201) (human, UniProt Q92963-1 1-201)
T1 construct: RIT1, human; loaded with GDP or non-hydrolyzable GTPγS before the assay; also called His-tagged RIT1; recombinant His-tagged RIT1 wildtype; source: E. coli BL21 (pET151/D-TOPO-RIT1^WT), purified

[2] = target: T2, His-RIT1^A57G (amino acids 1-201) (human, UniProt Q92963-1 1-201, A57G)
T2 construct: RIT1, human; Noonan syndrome-associated substitution in switch I; loaded with GDP or non-hydrolyzable GTPγS before the assay; also called RIT1 mutant p.A57G (recombinant); source: E. coli BL21 (pET151/D-TOPO-RIT1^A57G), purified

[3] = target: T3, His-RIT1^F82L (amino acids 1-201) (human, UniProt Q92963-1 1-201, F82L)
T3 construct: RIT1, human; Noonan syndrome-associated substitution in switch II; loaded with GDP or non-hydrolyzable GTPγS before the assay; also called RIT1 mutant p.F82L (recombinant); source: E. coli BL21 (pET151/D-TOPO-RIT1^F82L), purified
T3 sequence (Q92963 1-201 F82L): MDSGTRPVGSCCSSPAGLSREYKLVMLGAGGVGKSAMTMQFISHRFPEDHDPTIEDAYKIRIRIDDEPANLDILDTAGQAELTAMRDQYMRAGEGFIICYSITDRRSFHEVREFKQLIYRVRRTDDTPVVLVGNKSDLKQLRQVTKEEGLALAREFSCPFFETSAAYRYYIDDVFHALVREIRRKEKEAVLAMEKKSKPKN

T1 sequence (Q92963 1-201): as the sequence (Q92963 1-201 F82L) above, with L82F counted along it
T2 sequence (Q92963 1-201 A57G): as the sequence (Q92963 1-201 F82L) above, with A57G, L82F counted along it

- binding result [1]: binds
B1: GST-CDC42 (amino acids 1-178) (domain or fragment)
chain: not shown
notes: CDC42, amino acids 1-178; loaded with GDP or GTPγS before the assay; source: E. coli BL21 (pGEX-4T3-CDC42), isolated, coupled to glutathione agarose beads

- binding result [2]: binds
- binding result [1]: binds
- binding result [3]: binds
B2: GST-PAK[CRIB] (domain or fragment, UniProt Q13153 58-141, looked up)
chain: ILPGDKTNKKKEKERPEISLPSDFEHTIHVGFDAVTGEFTGMPEQWARLLQTSNITKSEQKKNPQAVLDVLEFYNSKKTSNSQK
notes: PAK1, CRIB domain, amino acids 58-141; source: E. coli BL21 (pGEX-2TK-PAK[CRIB]), isolated, coupled to glutathione agarose beads

From paper PMC5937737, “RIT1 controls actin dynamics via complex formation with RAC1/CDC42 and PAK1” (PLoS Genetics, 2018)
